Test results taken from article doi:10.1101/2021.10.24.465637.

What was measured:
[1] = target: SGHRT-FLAG (human SGHRT, C-terminal FLAG) (human); assay: SDS-PAGE and Western blot
[2] = target: SGHRT-HA (human SGHRT, C-terminal HA) (human); assay: SDS-PAGE and Western blot

stoichiometry N [1] | stoichiometry N [2] | Substance
2 |  | SGHRT-FLAG (human SGHRT, C-terminal FLAG) (peptide)
 | 2 | SGHRT-HA (human SGHRT, C-terminal HA) (peptide)
